Data on one protein can be found in paper PMC6572864, “Recombinant production, purification, crystallization, and structure analysis of human transforming growth factor β2 in a new conformation” (Scientific Reports, 2019).

The data set deals with the molecule itself. Briefly: crystal structure; sitting-drop vapor diffusion, 20 °C, 20% isopropanol, 0.2 M calcium chloride, 0.1 M sodium acetate pH 4.6; space group P4(1)2(1)2, 2.0 Å; half a disulfide-linked dimer per asymmetric unit.

B1: human transforming growth factor β2, mature growth-factor moiety (GF) (ligand, UniProt P61812 303-414, looked up)
chain: ALDAAYCFRNVQDNCCLRPLYIDFKRDLGWKWIHEPKGYNANFCAGACPYLWSSDTQHSRVLSLYNTINPEASASPCCVSQDLEPLTILYYIGKTPKIEQLSNMIVKSCKCS
notes: human TGFβ2 growth-factor moiety, residues A303-S414 of the precursor (UniProt P61812), 112 residues, released by cleavage at R302-A303; Disulfide-linked homodimer (intermolecular disulfide C379-C379); The crystals came from octahistidine-tagged pro-TGFβ2 mixed with methylamine-induced hα2M; they also grew from pro-TGFβ2 alone; also called mature TGFβ2; TGFβ2 GF; source: purified together with …
In the case of B1, the “stoichiometry N” value is 2.
